{
  "source": "paper PMC5737367",
  "target": "Rif1 1709-1916 (UniProt P29539)",
  "assay": "GST pull-down from yeast lysate",
  "conditions": "reference: wild type; sites S731",
  "data": [
    {"substance": "Rap1 (from UniProt P11938) S731A", "values": [
      {"measurement": "binding against the reference", "value": "weaker"}
    ]}
  ]
}
